This is an account of results in PMC10221034 (2023).

The chains are these.
B1: wild-type rTpiA (recombinant Streptococcus pneumoniae D39 triosephosphate isomerase) [Streptococcus pneumoniae D39] / human plasma plasminogen [human] (parent complex)
chain 1: SRKPFIAGNWKMNKNPEEAKAFVEAVASKLPSSDLVEAGIAAPALDLTTVLAVAKGSNLKVAAQNCYFENAGAFTGETSPQVLKEIGTDYVVIGHSERRDYFHETDEDINKKAKAIFANGMLPIICCGESLETYEAGKAAEFVGAQVSAALAGLTAEQVAASVIAYEPIWAIGTGKSASQDDAQKMCKVVRDVVAADFGQEVADKVRVQYGGSVKPENVASYMACPDVDGALVGGASLEAESFLALLDFVK
chain 2: EPLDDYVNTQGASLFSVTKKQLGAGSIEECAAKCEEDEEFTCRAFQYHSKEQQCVIMAENRKSSIIIRMRDVVLFEKKVYLSECKTGNGKNYRGTMSKTKNGITCQKWSSTSPHRPRFSPATHPSEGLEENYCRNPDNDPQGPWCYTTDPEKRYDYCDILECEEECMHCSGENYDGKISKTMSGLECQAWDSQSPHAHGYIPSKFPNKNLKKNYCRNPDRELRPWCFTTDPNKRWELCDIPRCTTPPPSSGPTYQCLKGTGENYRGNVAVTVSGHTCQHWSAQTPHTHNRTPENFPCKNLDENYCRNPDGKRAPWCHTTNSQVRWEYCKIPSCDSSPVSTEQLAPTAPPELTPVVQDCYHGDGQSYRGTSSTTTTGKKCQSWSSMTPHRHQKTPENYPNAGLTMNYCRNPDADKGPWCFTTDPSVRWEYCNLKKCSGTEASVVAPPPVVLLPDVETPSEEDCMFGNGKGYRGKRATTVTGTPCQDWAAQEPHRHSIFTPETNPRAGLEKNYCRNPDGDVGGPWCYTTNPRKLYDYCDVPQCAAPSFDCGKPQVEPKKCPGRVVGGCVAHPHSWPWQVSLRTRFGMHFCGGTLISPEWVLTAAHCLEKSPRPSSYKVILGAHQEVNLEPHVQEIEVSRLFLEPTRKDIALLKLSSPAVITDKVIPACLPSPNYVVADRTECFITGWGETQGTFGAGLLKEAQLPVIENKVCNRYEFLNGRVQSTELCAGHLAGGTDSCQGDSGGPLVCFEKDKYILQGVTSWGLGCARPNKPGVYVRVSRFVTWIEGVMRNN

Variants of B1 are the subject of the test. Description: ELISA; rTpiA protein-coated microtiter plate; measured 60 min after substrate addition; n = 9; parent: 1.4; read off a plot. For orientation: An ELISA detects its analyte on a solid surface through an enzyme-linked reagent.
For chain 1 K11A, the response is roughly 1.3 A405. As for chain 1 K20A, the response is roughly 1.3 A405. As to chain 1 K29A, the response was roughly 1.2 A405. In the case of chain 1 K55A, the response is roughly 1.3 A405.

Consider chain 1 K111A, chain 1 K112A, chain 1 K114A, for which the response is roughly 0.86 A405.

Consider chain 1 K14A, for which the response is roughly 1.3 A405.

Take chain 1 K138A: the response is roughly 1.3 A405. With chain 1 K3A, the response was roughly 1.3 A405.

On to chain 1 K205A, for which the response is roughly 1.3 A405. chain 1 K60A: the response is roughly 1.3 A405.

Consider chain 1 K112A, for which the response was roughly 1.2 A405. As for chain 1 K185A, the response is roughly 1.3 A405. Regarding chain 1 K84A, the response is roughly 1.2 A405. In the case of chain 1 K114A, the response was roughly 1.3 A405. Then chain 1 K111A, with roughly 1.3 A405; and chain 1 K188A, with roughly 1.3 A405. With chain 1 K251A, the response was roughly 0.14 A405. Consider chain 1 K215A, for which the response was roughly 1.4 A405. For chain 1 K176A, the response was roughly 1.3 A405.
